This is an account of results in the supplement of paper PMC5949888.

The data set has as its system Saccharomyces cerevisiae PS128 hsf1 delta, HSF1(1-493) fusion. Briefly: growth estimate (transactivation domain function in HSF1 fusion, heat-shock survival) (a.u. (slope of normalised read count over time)); higher = stronger growth at 37°C, i.e. more transactivation activity. The following applies: library: design library. Put shortly:
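Designed transactivation-domain oligos were fused to truncated yeast HSF1 (amino acids 1–493) and expressed in an hsf1-deleted yeast strain. Cells were replica-plated onto –trp 5-FOA plates and incubated at 30°C or 37°C for 0, 2, 4, 6 and 8 days. Inserts were PCR-amplified and Illumina MiSeq-sequenced as six barcoded replicates from one experiment. Growth estimate is the slope of a robust linear fit over time of read counts normalised to sample totals and starting count.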

As for EFNDLRDLDFILSN, the growth estimate is -0.248.
EFNDPLDLDFILSN: the growth estimate was -0.119.
As to EFNDRLDLDFILSN, the growth estimate was -0.246.
EFNGLLDLDFILSN: the growth estimate is -0.173.
Then EFNKLLDLDFILSN, with less than -0.25; and EFNPLLDLDFILSN, with less than -0.25.
Then EFNRLLDLDFILSN, with less than -0.25.
Consider EFPDLLDLDFILSN, for which the growth estimate was 0.17.
As to EFRDLLDLDFILSN, the growth estimate is 0.421.
Then EGDDEFSLWDSML, with 0.054; and EGNDLLDLDFILSN, with 0.62.
On to EKDDEFSLWDSML, for which the growth estimate is -0.193.
Turning to EKLYSILWSDVY, the growth estimate was -0.183.
Then EPDDEFSLWDSML, with 0.531; and EPLYSILWSDVY, with -0.136; and EPNDLLDLDFILSN, with 0.229.
Turning to ERDDEFSLWDSML, the growth estimate was 0.267.
With ERLYSILWSDVY, the growth estimate is less than -0.25.
Regarding ERNDLLDLDFILSN, the growth estimate was -0.237.
Then GADDIWEELLSEDL, with 1.28; and GDDDEFSLWDSML, with 1.64; and GDLYSILWSDVY, with -0.212.
Then GEFPGIELQELQELQALLQQ, with -0.114; and GELSWIIELLEKDG, with -0.152.
Then GFDLDMLGDFDLDMLG, with 1.03; and GFDYDFLFGNDFA, with 8.74; and GFNDLLDLDFILSN, with -0.0099.
With GFPDTQDDFLKWWRSEEAQ, the growth estimate is -0.128.
With GLDESWDYIFETTE, the growth estimate was 1.28.
For the sequence GLSSHGFSVDTSALLDLFSP, the growth estimate was 0.18.
As to GMDDVYNYLFDD, the growth estimate was 0.253.
In the case of GQNGEIAQLWDFN, the growth estimate is less than -0.25.
For KADDIWEELLSEDL, the growth estimate was 0.514.
Then KDDDEFSLWDSML, with 0.429; and KDLYSILWSDVY, with -0.212.
Turning to KEFPGIELQELQELQALLQQ, the growth estimate is less than -0.25.
In the case of KELSWIIELLEKDG, the growth estimate was -0.245.
For the sequence KFDLDMLGDFDLDMLG, the growth estimate is 0.164.
KFDYDFLFGNDFA: the growth estimate is 1.06.
Consider KFNDLLDLDFILSN, for which the growth estimate was 0.326.
With KFPDTQDDFLKWWRSEEAQ, the growth estimate is -0.0955.
On to KLDESWDYIFETTE, for which the growth estimate is -0.0907.
KLSSHGFSVDTSALLDLFSP: the growth estimate was -0.241.
As to KMDDVYNYLFDD, the growth estimate was -0.148.
As to KQNGEIAQLWDFN, the growth estimate is less than -0.25.
Consider LADYDFLFGNDFA, for which the growth estimate was 2.67.
Take LFAYDFLFGNDFA: the growth estimate is 0.948.
Regarding LFDADFLFGNDFA, the growth estimate is 0.761.
Consider LFDGDFLFGNDFA, for which the growth estimate is 1.7.
Then LFDKDFLFGNDFA, with -0.177; and LFDYAFLFGNDFA, with 2.15; and LFDYDALFGNDFA, with 0.627.
Turning to LFDYDFGFGNDFA, the growth estimate is 1.76.
LFDYDFKFGNDFA: the growth estimate was -0.229.
Regarding LFDYDFLAGNDFA, the growth estimate was 0.0054.
Then LFDYDFLFANDFA, with 2.92.
Turning to LFDYDFLFGADFA, the growth estimate is 1.91.
In the case of LFDYDFLFGGDFA, the growth estimate is 5.98.
As to LFDYDFLFGKDFA, the growth estimate was 2.49.
Regarding LFDYDFLFGNAFA, the growth estimate is 0.211.
For the sequence LFDYDFLFGNDAA, the growth estimate is 2.84.
Then LFDYDFLFGNDFA, with 6.94.
Then LFDYDFLFGNDFG, with 0.038; and LFDYDFLFGNDFK, with 2.23; and LFDYDFLFGNDFP, with 15.5.
